{"source": "paper PMC10713844", "about": "“Characterization of the enzyme kinetics of EMP and HMP pathway in Corynebacterium glutamicum: reference for modeling metabolic networks” (Frontiers in Bioengineering and Biotechnology, 2023)", "proteins": {"B1": {"name": "GAPDH (glyceraldehyde 3-phosphate dehydrogenase) (Corynebacterium glutamicum ATCC 13032) (protein)", "chain": "MTIRVGINGFGRIGRNFFRAVLERSDDLEVVAVNDLTDNKTLSTLLKFDSIMGRLGQEVEYDDDSITVGGKRIAVYAERDPKNLDWAAHNVDIVIESTGFFTDANAAKAHIEAGAKKVIISAPASNEDATFVYGVNHESYDPENHNVISGASCTTNCLAPMAKVLNDKFGIENGLMTTVHAYTGDQRLHDAPHRDLRRARAAAVNIVPTSTGAAKAVALVLPELKGKLDGYALRVPVITGSATDLTFNTKSEVTVESINAAIKEAAVGEFGETLAYSEEPLVSTDIVHDSHGSIFDAGLTKVSGNTVKVVSWYDNEWGYTCQLLRLTELVASKL"}, "B2": {"name": "RPI (ribose-5-phosphate isomerase) (Corynebacterium glutamicum ATCC 13032) (protein)", "chain": "MRVYLGADHAGFETKNAIAEHLKAHGHEVIDCGAHTYDAEDDYPAFCIEAASRTVNDPGSLGIVLGGSGNGEQIAANKVKGARCALAWSVETARLAREHNNANLIGIGGRMHSEEEALAIVDAFLEQEWSNAERHQRRIDILADYERTGIAPVVPNE"}, "B3": {"name": "TAL (transaldolase) (Corynebacterium glutamicum ATCC 13032) (protein)", "chain": "MSHIDDLAQLGTSTWLDDLSRERITSGNLSQVIEEKSVVGVTTNPAIFAAAMSKGDSYDAQIAELKAAGASVDQAVYAMSIDDVRNACDLFTGIFESSNGYDGRVSIEVDPRISADRDATLAQAKELWAKVDRPNVMIKIPATPGSLPAITDALAEGISVNVTLIFSVARYREVIAAFIEGIKQAAANGHDVSKIHSVASFFVSRVDVEIDKRLEAIGSDEALALRGKAGVANAQRAYAVYKELFDAAELPEGANTQRPLWASTGVKNPAYAATLYVSELAGPNTVNTMPEGTIDAVLEQGNLHGDTLSNSAAEADAVFSQLEALGVDLADVFQVLETEGVDKFVASWSELLESMEARLK"}, "B4": {"name": "GLK (glucokinase) (Corynebacterium glutamicum ATCC 13032) (protein)", "chain": "MPQKPASFAVGFDIGGTNMRAGLVDESGRIVTSLSAPSPRTTQAMEQGIFDLVEQLKAEYPVGAVGLAVAGFLDPECEVVRFAPHLPWRDEPVREKLENLLGLPVRLEHDANSAAWGEHRFGAAQGADNWVLLALGTGIGAALIEKGEIYRGAYGTAPEFGHLRVVRGGRACACGKEGCLERYCSGTALVYTARELASHGSFRNSGLFDKIKADPNSINGKTITAAARQEDPLALAVLEDFSEWLGETLAIIADVLDPGMIIIGGGLSNAADLYLDRSVNHYSTRIVGAGYRPLARVATAQLGADAGMIGVADLARRSVVEAN"}, "B5": {"name": "TPI (triosephosphate isomerase) (Corynebacterium glutamicum ATCC 13032) (protein)", "chain": "MARKPLIAGNWKMNLDHQQAIGTVQKLAFALPKEYFEKVDVAVTVPFTDIRSVQTLVEGDKLEVTFGAQDVSQHESGAYTGEVSASMLAKLNCSWVVVGHSERREYHNESDELVAAKAKAALSNGISPIVCVGEPLEIREAGTHVEYVVEQTRKSLAGLDAAELANTVIAYEPVWAIGTGKVASAADAQEVCKAIRGLIVELAGDEVAEGLRILYGGSVKAETVAEIVGQPDVDGGLVGGASLDGEAFAKLAANAASVA"}, "B6": {"name": "ENO (enolase; ENO-Y) (Corynebacterium glutamicum ATCC 13032) (protein)", "chain": "MAEIMHVFAREILDSRGNPTVEAEVFLDDGSHGVAGVPSGASTGVHEAHELRDGGDRYLGKGVLKAVENVNEEIGDELAGLEADDQRLIDEAMIKLDGTANKSRLGANAILGVSMAVAKAAADSAGLPLFRYIGGPNAHVLPVPMMNIINGGAHADSGVDVQEFMIAPIGAETFSEALRNGAEVYHALKSVIKEKGLSTGLGDEGGFAPSVGSTREALDLIVEAIEKAGFTPGKDIALALDVASSEFFKDGTYHFEGGQHSAAEMANVYAELVDAYPIVSIEDPLQEDDWEGYTNLTATIGDKVQIVGDDFFVTNPERLKEGIAKKAANSILVKVNQIGTLTETFDAVDMAHRAGYTSMMSHRSGETEDTTIADLAVALNCGQIKTGAPARSDRVAKYNQLLRIEQLLGDAGVYAGRSAFPRFQG"}, "B7": {"name": "PGMA / PMGA / pgma (phosphoglycerate mutase) (Corynebacterium glutamicum ATCC 13032) (protein)", "chain": "MTNGKLILLRHGQSEWNASNQFTGWVDVNLTEQGEAEAKRGGELLVEAGVLPGVVYTSLLRRAIRTANIALNAADRHWIPVIRDWRLNERHYGALQGLDKAATKEKYGDDQFMEWRRSYDTPPPELADDAEYSQANDPRYADLDVVPRTECLKDVVVRFVPYFEEEILPRAKKGETVLIAAHGNSLRALVKHLDGISDADIAELNIPTGIPLVYEIAEDGSVVNPGGTYLDPEAAAAGAAAVANQGNK"}, "B8": {"name": "RPE (ribulose-5-phosphate 3-epimerase) (Corynebacterium glutamicum ATCC 13032) (protein)", "chain": "MAQRTPLIAPSILAADFSRLGEQVLAVPDADWIHVDIMDGHFVPNLSFGADITAAVNRVTDKELDVHLMIENPEKWVDNYIDAGADCIVFHVEATEGHVELAKYIRSKGVRAGFSLRPGTPIEDYLDDLEHFDEVIVMSVEPGFGGQSFMPEQLEKVRTLRKVIDERGLNTVIEIDGGISAKTIKQAADAGVDAFVAGSAVYGAEDPNKAIQELRALAQ"}}, "experiment_in_all_cases": "initial-rate kinetics, Michaelis-Menten fit", "assay_type_in_all_cases": "biochemical, Corynebacterium glutamicum", "details_in_all_cases": "PBS with 0.5 mM MgCl2, pH 7.4, 37 °C", "key": {"[1]": {"substrate": "O=C[C@H](O)COP(=O)(O)O", "source_text": "initial-rate kinetics, Michaelis-Menten fit on GAPDH (glyceraldehyde 3-phosphate dehydrogenase)"}, "[2]": {"substrate": "O=C(CO)[C@H](O)[C@H](O)COP(=O)(O)O", "source_text": "initial-rate kinetics, Michaelis-Menten fit on RPI (ribose-5-phosphate isomerase)"}, "[3]": {"substrate": "O=C[C@H](O)COP(=O)(O)O", "source_text": "initial-rate kinetics, Michaelis-Menten fit on TAL (transaldolase)", "remark": "listed apart in the source"}, "[4]": {"substrate": "Nc1ncnc2c1ncn2[C@@H]1O[C@H](COP(=O)(O)OP(=O)(O)OP(=O)(O)O)[C@@H](O)[C@H]1O", "source_text": "initial-rate kinetics, Michaelis-Menten fit on GLK (glucokinase)"}, "[5]": {"substrate": "O=C(CO)COP(=O)(O)O", "source_text": "initial-rate kinetics, Michaelis-Menten fit on TPI (triosephosphate isomerase)"}, "[6]": {"substrate": "O=C(O)[C@@H](CO)OP(=O)(O)O", "source_text": "initial-rate kinetics, Michaelis-Menten fit on ENO (enolase; ENO-Y)"}, "[7]": {"substrate": "O=C(O)[C@H](O)COP(=O)(O)O", "source_text": "initial-rate kinetics, Michaelis-Menten fit on PGMA / PMGA / pgma (phosphoglycerate mutase)"}, "[8]": {"substrate": "O=C(CO)[C@H](O)[C@H](O)COP(=O)(O)O", "source_text": "initial-rate kinetics, Michaelis-Menten fit on RPE (ribulose-5-phosphate 3-epimerase)", "remark": "listed apart in the source"}}, "data": [{"protein": "B1", "values": [{"measurement": "Km", "setting": "[1]", "result": "1470 ± 110", "unit": "µM"}, {"measurement": "Vmax", "setting": "[1]", "result": 15.7, "unit": "µmol/min/mg"}, {"measurement": "kcat", "setting": "[1]", "result": "9.71 ± 0.36", "unit": "s⁻¹"}]}, {"protein": "B2", "values": [{"measurement": "Km", "setting": "[2]", "result": "420 ± 60", "unit": "µM"}, {"measurement": "Vmax", "setting": "[2]", "result": 11.2, "unit": "µmol/min/mg"}, {"measurement": "kcat", "setting": "[2]", "result": "3.39 ± 0.22", "unit": "s⁻¹"}]}, {"protein": "B3", "values": [{"measurement": "Km", "setting": "[3]", "result": "290 ± 80", "unit": "µM"}, {"measurement": "Vmax", "setting": "[3]", "result": 6.44, "unit": "µmol/min/mg"}, {"measurement": "kcat", "setting": "[3]", "result": "4.24 ± 0.47", "unit": "s⁻¹"}]}, {"protein": "B4", "values": [{"measurement": "Km", "setting": "[4]", "result": "810 ± 80", "unit": "µM"}, {"measurement": "Vmax", "setting": "[4]", "result": 37.7, "unit": "µmol/min/mg"}, {"measurement": "kcat", "setting": "[4]", "result": "22.2 ± 1.07", "unit": "s⁻¹"}]}, {"protein": "B5", "values": [{"measurement": "Km", "setting": "[5]", "result": "5430 ± 160", "unit": "µM"}, {"measurement": "Vmax", "setting": "[5]", "result": 160, "unit": "µmol/min/mg"}, {"measurement": "kcat", "setting": "[5]", "result": "75.7 ± 2.11", "unit": "s⁻¹"}]}, {"protein": "B6", "values": [{"measurement": "Km", "setting": "[6]", "result": "60 ± 10", "unit": "µM"}]}, {"protein": "B7", "values": [{"measurement": "Km", "setting": "[7]", "result": "4440 ± 320", "unit": "µM"}, {"measurement": "Vmax", "setting": "[7]", "result": 43.2, "unit": "µmol/min/mg"}, {"measurement": "kcat", "setting": "[7]", "result": "20.4 ± 1.05", "unit": "s⁻¹"}]}, {"protein": "B8", "values": [{"measurement": "Km", "setting": "[8]", "result": "2810 ± 1250", "unit": "µM"}, {"measurement": "Vmax", "setting": "[8]", "result": 430, "unit": "µmol/min/mg"}, {"measurement": "kcat", "setting": "[8]", "result": "179 ± 22.2", "unit": "s⁻¹"}]}]}
